Patent US12099068B2, “Biomarkers for graft-versus-host disease” (Incyte Corporation, priority 2018, dated 2024)

B1: SELE (protein, UniProt P16581 22-610, looked up)
E-selectin: WSYNTSTEAMTYDEASAYCQQRYTHLVAIQNKEEIEYLNSILSYSPSYYWIGIRKVNNVWVWVGTQKPLTEEAKNWAPGEPNNRQKDEDCVEIYIKREKDVGMWNDERCSKKKLALCYTAACTNTSCSGHGECVETINNYTCKCDPGFSGLKCEQIVNCTALESPEHGSLVCSHPLGNFSYNSSCSISCDRGYLPSSMETMQCMSSGEWSAPIPACNVVECDAVTNPANGFVECFQNPGSFPWNTTCTFDCEEGFELMGAQSLQCTSSGNWDNEKPTCKAVTCRAVRQPQNGSVRCSHSPAGEFTFKSSCNFTCEEGFMLQGPAQVECTTQGQWTQQIPVCEAFQCTALSNPERGYMNCLPSASGSFRYGSSCEFSCEQGFVLKGSKRLQCGPTGEWDNEKPTCEAVRCDAVHQPPKGLVRCAHSPIGEFTYKSSCAFSCEEGFELHGSTQLECTSQGQWTEEVPSCQVVKCSSLAVPGKINMSCSGEPVFGTVCKFACPEGWTLNGSAARTCGATGHWSGLLPTCEAPTESNIPLVAGLSAAGLSLLTLAPFLLWLRKCLRKAKKFVPASSCQSLESDGSYQKPSYIL
B2: PSP-D (protein, UniProt P35247 21-375, looked up)
Pulmonary …: AEMKTYSHRTMPSACTLVMCSSVESGLPGRDGRDGREGPRGEKGDPGLPGAAGQAGMPGQAGPVGPKGDNGSVGEPGPKGDTGPSGPPGPPGVPGPAGREGPLGKQGNIGPQGKPGPKGEAGPKGEVGAPGMQGSAGARGLAGPKGERGVPGERGVPGNTGAAGSAGAMGPQGSPGARGPPGLKGDKGIPGDKGAKGESGLPDVASLRQQVEALQGQVQHLQAAFSQYKKVELFPNGQSVGEKIFKTAGFVKPFTEAQLLCTQAGGQLASPRSAAENAALQQLVVAKNEAAFLSMTDSKTEGKFTYPTGESLVYSNWAPGEPNDDGGSEDCVEIFTNGKWNDRACGEKRLVVCEF
B3: LILRB2 (protein, UniProt Q8N423 22-597, looked up)
Leukocyte immunoglobulin-like …: QTGTIPKPTLWAEPDSVITQGSPVTLSCQGSLEAQEYRLYREKKSASWITRIRPELVKNGQFHIPSITWEHTGRYGCQYYSRARWSELSDPLVLVMTGAYPKPTLSAQPSPVVTSGGRVTLQCESQVAFGGFILCKEGEDEHPQCLNSQPHARGSSRAIFSVGPVSPNRRWSHRCYGYDLNSPYVWSSPSDLLELLVPGVSKKPSLSVQPGPVMAPGESLTLQCVSDVGYDRFVLYKEGERDLRQLPGRQPQAGLSQANFTLGPVSRSYGGQYRCYGAHNLSSECSAPSDPLDILITGQIRGTPFISVQPGPTVASGENVTLLCQSWRQFHTFLLTKAGAADAPLRLRSIHEYPKYQAEFPMSPVTSAHAGTYRCYGSLNSDPYLLSHPSEPLELVVSGPSMGSSPPPTGPISTPGPEDQPLTPTGSDPQSGLGRHLGVVIGILVAVVLLLLLLLLLFLILRHRRQGKHWTSTQRKADFQHPAGAVGPEPTDRGLQWRSSPAADAQEENLYAAVKDTQPEDGVEMDTRAAASEAPQDVTYAQLHSLTLRRKATEPPPSQEREPPAEPSIYATLAIH
B4: BID (protein, UniProt P55957 1-195, looked up)
BH3-interacting domain death …: MDCEVNNGSSLRDECITNLLVFGFLQSCSDNSFRRELDALGHELPVLAPQWEGYDELQTDGNRSSHSRLGRIEADSESQEDIIRNIARHLAQVGDSMDRSIPPGLVNGLALQLRNTSRSEEDRNRDLATALEQLLQAYPRDMEKEKTMLVLALLLAKKVASHTPSLLRDVFHTTVNFINQNLRTYVRSLARNGMD
B5: SLAMF1 (protein, UniProt Q13291 21-335, looked up)
Signaling lymphocytic …: ASYGTGGRMMNCPKILRQLGSKVLLPLTYERINKSMNKSIHIVVTMAKSLENSVENKIVSLDPSEAGPPRYLGDRYKFYLENLTLGIRESRKEDEGWYLMTLEKNVSVQRFCLQLRLYEQVSTPEIKVLNKTQENGTCTLILGCTVEKGDHVAYSWSEKAGTHPLNPANSSHLLSLTLGPQHADNIYICTVSNPISNNSQTFSPWPGCRTDPSETKPWAVYAGLLGGVIMILIMVVILQLRRRGKTNHYQTTVEKKSLTIYAQVQKPGPLQKKLDSFPAQDPCTTIYVAATEPVPESVQETNSITVYASVTLPES
B6: CPXM1 (protein, UniProt Q96SM3 21-734, looked up)
Probable carboxypeptidase X1: APRNSVLGLAQPGTTKVPGSTPALHSSPAQPPAETANGTSEQHVRIRVIKKKKVIMKKRKKLTLTRPTPLVTAGPLVTPTPAGTLDPAEKQETGCPPLGLESLRVSDSRLEASSSQSFGLGPHRGRLNIQSGLEDGDLYDGAWCAEEQDADPWFQVDAGHPTRFSGVITQGRNSVWRYDWVTSYKVQFSNDSRTWWGSRNHSSGMDAVFPANSDPETPVLNLLPEPQVARFIRLLPQTWLQGGAPCLRAEILACPVSDPNDLFLEAPASGSSDPLDFQHHNYKAMRKLMKQVQEQCPNITRIYSIGKSYQGLKLYVMEMSDKPGEHELGEPEVRYVAGMHGNEALGRELLLLLMQFLCHEFLRGNPRVTRLLSEMRIHLLPSMNPDGYEIAYHRGSELVGWAEGRWNNQSIDLNHNFADLNTPLWEAQDDGKVPHIVPNHHLPLPTYYTLPNATVAPETRAVIKWMKRIPFVLSANLHGGELVVSYPFDMTRTPWAARELTPTPDDAVFRWLSTVYAGSNLAMQDTSRRPCHSQDFSVHGNIINGADWHTVPGSMNDFSYLHTNCFEVTVELSCDKFPHENELPQEWENNKDALLTYLEQVRMGIAGVVRDKDTELGIADAVIAVDGINHDVTTAWGGDYWRLLTPGDYMVTASAEGYHSVTRNCRVTFEEGPFPCNFVLTKTPKQRLRELLAAGAKVPPDLRRRLERLRGQKD
B7: CLEC5A (protein, UniProt Q9NY25 1-188, looked up)
C-type lectin domain family 5 …: MNWHMIISGLIVVVLKVVGMTLFLLYFPQIFNKSNDGFTTTRSYGTVSQIFGSSSPSPNGFITTRSYGTVCPKDWEFYQARCFFLSTSESSWNESRDFCKGKGSTLAIVNTPEKLKFLQDITDAEKYFIGLIYHREEKRWRWINNSVFNGNVTNQNQNFNCATIGLTKTFDAASCDISYRRICEKNAK
B8: SELL (protein, UniProt P14151 39-372, looked up)
L-selectin: WTYHYSEKPMNWQRARRFCRDNYTDLVAIQNKAEIEYLEKTLPFSRSYYWIGIRKIGGIWTWVGTNKSLTEEAENWGDGEPNNKKNKEDCVEIYIKRNKDAGKWNDDACHKLKAALCYTASCQPWSCSGHGECVEIINNYTCNCDVGYYGPQCQFVIQCEPLEAPELGTMDCTHPLGNFSFSSQCAFSCSEGTNLTGIEETTCGPFGNWSSPEPTCQVIQCEPLSAPDLGIMNCSHPLASFSFTSACTFICSEGTELIGKKKTICESSGIWSNPSPICQKLDKSFSMIKEGDYNPLFIPVAVMVTAFSGLAFIIWLARRLKKGKKSKRSMNDPY
B9: CD5 (protein, UniProt P06127 25-495, looked up)
T-cell surface glycoprotein …: RLSWYDPDFQARLTRSNSKCQGQLEVYLKDGWHMVCSQSWGRSSKQWEDPSQASKVCQRLNCGVPLSLGPFLVTYTPQSSIICYGQLGSFSNCSHSRNDMCHSLGLTCLEPQKTTPPTTRPPPTTTPEPTAPPRLQLVAQSGGQHCAGVVEFYSGSLGGTISYEAQDKTQDLENFLCNNLQCGSFLKHLPETEAGRAQDPGEPREHQPLPIQWKIQNSSCTSLEHCFRKIKPQKSGRVLALLCSGFQPKVQSRLVGGSSICEGTVEVRQGAQWAALCDSSSARSSLRWEEVCREQQCGSVNSYRVLDAGDPTSRGLFCPHQKLSQCHELWERNSYCKKVFVTCQDPNPAGLAAGTVASIILALVLLVVLLVVCGPLAYKKLVKKFRQKKQRQWIGPTGMNQNMSFHRNHTATVRSHAENPTASHVDNEYSQPPRNSHLSAYPALEGALHRSSMQPDNSSDSDYDLHGAQRL
B10: CRTAM (protein, UniProt O95727 18-393, looked up)
Cytotoxic and regulatory …: SLTNHTETITVEEGQTLTLKCVTSLRKNSSLQWLTPSGFTIFLNEYPALKNSKYQLLHHSANQLSITVPNVTLQDEGVYKCLHYSDSVSTKEVKVIVLATPFKPILEASVIRKQNGEEHVVLMCSTMRSKPPPQITWLLGNSMEVSGGTLHEFETDGKKCNTTSTLIIHTYGKNSTVDCIIRHRGLQGRKLVAPFRFEDLVTDEETASDALERNSLSSQDPQQPTSTVSVTEDSSTSEIDKEEKEQTTQDPDLTTEANPQYLGLARKKSGILLLTLVSFLIFILFIIVQLFIMKLRKAHVIWKKENEVSEHTLESYRSRSNNEETSSEEKNGQSSHPMRCMNYITKLYSEAKTKRKENVQHSKLEEKHIQVPESIV
B11: TANK (protein, UniProt Q92844 1-425, looked up)
TRAF family member-associated …: MDKNIGEQLNKAYEAFRQACMDRDSAVKELQQKTENYEQRIREQQEQLSLQQTIIDKLKSQLLLVNSTQDNNYGCVPLLEDSETRKNNLTLDQPQDKVISGIAREKLPKVRRQEVSSPRKETSARSLGSPLLHERGNIEKTFWDLKEEFHKICMLAKAQKDHLSKLNIPDTATETQCSVPIQCTDKTDKQEALFKPQAKDDINRGAPSITSVTPRGLCRDEEDTSFESLSKFNVKFPPMDNDSTFLHSTPERPGILSPATSEAVCQEKFNMEFRDNPGNFVKTEETLFEIQGIDPIASAIQNLKTTDKTKPSNLVNTCIRTTLDRAACLPPGDHNALYVNSFPLLDPSDAPFPSLDSPGKAIRGPQQPIWKPFPNQDSDSVVLSGTDSELHIPRVCEFCQAVFPPSITSRGDFLRHLNSHFNGET
B12: RELT (protein, UniProt Q969Z4 26-430, looked up)
Tumor necrosis factor …: STTLWQCPPGEEPDLDPGQGTLCRPCPPGTFSAAWGSSPCQPHARCSLWRRLEAQVGMATRDTLCGDCWPGWFGPWGVPRVPCQPCSWAPLGTHGCDEWGRRARRGVEVAAGASSGGETRQPGNGTRAGGPEETAAQYAVIAIVPVFCLMGLLGILVCNLLKRKGYHCTAHKEVGPGPGGGGSGINPAYRTEDANEDTIGVLVRLITEKKENAAALEELLKEYHSKQLVQTSHRPVSKLPPAPPNVPHICPHRHHLHTVQGLASLSGPCCSRCSQKKWPEVLLSPEAVAATTPVPSLLPNPTRVPKAGAKAGRQGEITILSVGRFRVARIPEQRTSSMVSEVKTITEAGPSWGDLPDSPQPGLPPEQQALLGSGGSRTKWLKPPAENKAEENRYVVRLSESNLVI
B13: MESDC2 (protein, UniProt Q14696 34-234, looked up)
LRP chaperone MESD: AEGSPGTPDESTPPPRKKKKDIRDYNDADMARLLEQWEKDDDIEEGDLPEHKRPSAPVDFSKIDPSKPESILKMTKKGKTLMMFVTVSGSPTEKETEEITSLWQGSLFNANYDVQRFIVGSDRAIFMLRDGSYAWEIKDFLVGQDRCADVTLEGQVYPGKGGGSKEKNKTKQDKGKKKKEGDLKSRSSKEENRAGNKREDL

Tested on: plasma proteins
Experiment: Plasma proteins modulated between baseline and day 28 in responders (CR, VGPR, PR; n = 19), Example 6 (Table 13)
Type: in vivo, human
Details: plasma protein (OLINK NPX); responders (CR, VGPR, PR; n = 19); itacitinib 200 mg or 300 mg QD with corticosteroids; day 28 vs baseline
Procedure, shortened: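 Longitudinal comparison, day 28 versus baseline, with steroid-naive (N=10) and steroid-refractory (N=18) patients combined. Proteins measured by OLINK proximity extension, log2 normalized protein expression. Differences tested by t tests, ANOVA, Pearson correlation, P<0.05 significant.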

Row | Molecule | Fold Change, Decreased Expression from Baseline to Day 28
1 | B1 | −1.5291
2 | B2 | −1.2426
3 | B3 | −1.2555
4 | B4 | −1.382
5 | B5 | −1.2218
6 | B6 | −1.4779
7 | B7 | −1.3618
8 | B8 | −1.4428
9 | B9 | −1.9942
10 | B10 | −1.5805
11 | B11 | −1.3124
12 | B12 | −1.3317
13 | B13 | −1.7056
